Source: PMC8158962, “Modulation of fungal virulence through CRZ1 regulated F-BAR-dependent actin remodeling and endocytosis in chickpea infecting phytopathogen Ascochyta rabiei”

Target: T1, His-ArCRZ1 (Ascochyta rabiei, UniProt A0A163H1V7 1-755)
T1 sequence: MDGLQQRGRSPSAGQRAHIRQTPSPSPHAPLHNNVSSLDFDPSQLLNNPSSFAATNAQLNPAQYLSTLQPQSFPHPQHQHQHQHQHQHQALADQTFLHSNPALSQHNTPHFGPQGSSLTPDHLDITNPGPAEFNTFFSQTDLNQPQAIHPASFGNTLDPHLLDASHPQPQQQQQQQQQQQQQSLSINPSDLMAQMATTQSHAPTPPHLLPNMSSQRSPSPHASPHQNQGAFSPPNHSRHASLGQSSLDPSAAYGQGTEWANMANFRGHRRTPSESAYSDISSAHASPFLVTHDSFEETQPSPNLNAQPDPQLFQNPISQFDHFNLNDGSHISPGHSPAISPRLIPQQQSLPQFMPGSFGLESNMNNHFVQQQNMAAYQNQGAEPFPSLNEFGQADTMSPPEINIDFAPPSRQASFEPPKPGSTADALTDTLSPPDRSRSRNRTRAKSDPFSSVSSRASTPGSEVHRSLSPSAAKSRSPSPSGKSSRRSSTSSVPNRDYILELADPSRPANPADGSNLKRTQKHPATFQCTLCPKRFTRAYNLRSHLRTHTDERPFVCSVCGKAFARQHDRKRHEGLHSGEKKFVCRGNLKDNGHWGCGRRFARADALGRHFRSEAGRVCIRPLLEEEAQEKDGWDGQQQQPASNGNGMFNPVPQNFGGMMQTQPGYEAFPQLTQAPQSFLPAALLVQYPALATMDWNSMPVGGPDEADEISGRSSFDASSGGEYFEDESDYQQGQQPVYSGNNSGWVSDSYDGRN
Experiment: EMSA; 15 mM HEPES pH 7.6, 0.2 mM MgCl2, 35 mM KCl, 1 mM DTT, 1% glycerol, 1 mg poly(dI-dC) (so in the source), 10 ng labelled DNA, 30 uL, 25 min, room temperature; 6% native PAGE
Conditions: protein: recombinant; tags: His (pET28a(+)); label: 32P end label; blunt

B1: WT CDRE (GRF/GRR), 58 bp (dsDNA)
DNA 1: CTCCAGCCATCGAGCCCCACCACCAATTGGGCCGCCAGTGAGAGCCCCAAGGCCGTCC
DNA 2: GGACGGCCTTGGGGCTCTCACTGGCGGCCCAATTGGTGGTGGGGCTCGATGGCTGGAG
- binding result: binds
